# Test results taken from FireProtDB (doi:10.1074/jbc.272.30.18686).
# Details: Escherichia coli (strain K12); pH 3.2; Thermal; CD; glycine-HCl 10 mM; reversible: yes; whole UniProt chain shown
protein,measurement,value
"Ribonuclease HI wild type, P0A7Y4 (protein) MLKQVEIFTDGSCLGNPGPGGYGAILRYRGREKTFSAGYTRTTNNRMELMAAIVALEALKEHCEVILSTDSQYVRQGITQWIHNWKKRGWKTADKKPVKNVDLWQRLDAALGQHQIKWEWVKGHAGHPENERCDELARAAAMNPTLEDTGYQVEV",Tm,53 °C
same,unfolding enthalpy (van 't Hoff),99.2 kcal/mol
